In article PMC10208892 (The Journal of Biological Chemistry, 2023):
Changes are numbered by the printed parent chain.

What was measured:
[1] = biological target: T1, VPS33B with C-terminal biotinylation signal (human, UniProt Q9H267 1-617, biotin on lysine 41 of the biotinylation signal); assay: co-IP
T1 sequence: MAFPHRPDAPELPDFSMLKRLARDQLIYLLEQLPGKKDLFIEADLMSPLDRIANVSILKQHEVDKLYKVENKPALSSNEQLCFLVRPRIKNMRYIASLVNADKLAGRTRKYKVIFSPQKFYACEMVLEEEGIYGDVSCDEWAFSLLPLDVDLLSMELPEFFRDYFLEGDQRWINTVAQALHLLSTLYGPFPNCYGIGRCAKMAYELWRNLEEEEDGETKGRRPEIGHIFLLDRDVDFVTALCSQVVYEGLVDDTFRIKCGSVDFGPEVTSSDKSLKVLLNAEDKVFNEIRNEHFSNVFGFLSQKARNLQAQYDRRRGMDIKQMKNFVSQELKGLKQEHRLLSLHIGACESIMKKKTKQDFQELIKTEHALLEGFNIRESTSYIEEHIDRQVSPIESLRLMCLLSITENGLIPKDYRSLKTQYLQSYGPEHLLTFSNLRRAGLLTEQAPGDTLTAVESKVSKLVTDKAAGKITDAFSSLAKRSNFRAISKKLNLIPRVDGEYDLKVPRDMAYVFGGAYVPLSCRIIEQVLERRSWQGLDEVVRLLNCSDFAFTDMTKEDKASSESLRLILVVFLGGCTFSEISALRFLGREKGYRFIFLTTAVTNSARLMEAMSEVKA

VPS33B S243F = biological target: T2, VPS33B S243F (human, UniProt Q9H267 1-617, S243F); assay: co-IP
T2 sequence: T1 sequence with S243F

VPS33B H344D = biological target: T3, VPS33B H344D (human, UniProt Q9H267 1-617, H344D); assay: co-IP
T3 sequence: T1 sequence with H344D

[2] = biological target: T4, VPS33B, untagged, expressed in yeast (human, UniProt Q9H267 1-617); assay: native gel or EMSA
T4 sequence: T1 sequence

[3] = biological target: T5, HA-VPS33B, expressed in yeast (human, UniProt Q9H267 1-617); assay: co-IP
T5 sequence: T1 sequence

[4] = biological target: T4, VPS33B, untagged, expressed in yeast; assay: co-IP

B1: VPS16B-3xFLAG, expressed in yeast (natural protein)
chain: MNRTKGDEEEYWNSSKFKAFTFDDEDDELSQLKESKRAVNSLRDFVDDDDDDDLERVSWSGEPVGSISWSIRETAGNSGSTHEGREQLKSRNSFSSYAQLPKPTSTYSLSSFFRGRTRPGSFQSLSDALSDTPAKSYAPELGRPKGEYRDYSNDWSPSDTVRRLRKGKVCSLERFRSLQDKLQLLEEAVSMHDGNVITAVLIFLKRTLSKEILFRELEVRQVALRHLIHFLKEIGDQKLLLDLFRFLDRTEELALSHYREHLNIQDPDKRKEFLKTCVGLPFSAEDSAHIQDHYTLLERQIIIEANDRHLESAGQTEIFRKHPRKASILNMPLVTTLFYSCFYHYTEAEGTFSSPVNLKKTFKIPDKQYVLTALAARAKLRAWNDVDALFTTKNWLGYTKKRAPIGFHRVVEILHKNNAPVQILQEYVNLVEDVDTKLNLATKFKCHDVVIDTYRDLKDRQQLLAYRSKVDKGSAEEEKIDALLSSSQIRWKN
[1]
  binding result: binds
VPS33B S243F
  binding result: binds
VPS33B H344D
  binding result: binds
[2]
  binding result: binds

B2: HA-VPS16B-3xFLAG, expressed in yeast (natural protein)
chain: B1 chain
[3]
  binding result: binds

B3: VPS16B(143–316)-3xFLAG (domain or fragment)
chain: RPKGEYRDYSNDWSPSDTVRRLRKGKVCSLERFRSLQDKLQLLEEAVSMHDGNVITAVLIFLKRTLSKEILFRELEVRQVALRHLIHFLKEIGDQKLLLDLFRFLDRTEELALSHYREHLNIQDPDKRKEFLKTCVGLPFSAEDSAHIQDHYTLLERQIIIEANDRHLESAGQT
[4]
  binding result: binds

B4: VPS16B(143–493)-3xFLAG (domain or fragment)
chain: RPKGEYRDYSNDWSPSDTVRRLRKGKVCSLERFRSLQDKLQLLEEAVSMHDGNVITAVLIFLKRTLSKEILFRELEVRQVALRHLIHFLKEIGDQKLLLDLFRFLDRTEELALSHYREHLNIQDPDKRKEFLKTCVGLPFSAEDSAHIQDHYTLLERQIIIEANDRHLESAGQTEIFRKHPRKASILNMPLVTTLFYSCFYHYTEAEGTFSSPVNLKKTFKIPDKQYVLTALAARAKLRAWNDVDALFTTKNWLGYTKKRAPIGFHRVVEILHKNNAPVQILQEYVNLVEDVDTKLNLATKFKCHDVVIDTYRDLKDRQQLLAYRSKVDKGSAEEEKIDALLSSSQIRWKN
[4]
  binding result: binds
